Measurements published in article PMC4226670.

Target: GST-p53 (UniProt P04637)
Test: fluorescence polarization
Conditions: FP: 4 nM FAM duplex, 100 mM NaCl, 10 mM Tris-HCl pH 7.5, 10% glycerol, 5 mM DTT, 0.2 mg/mL BSA, room temperature; pull-down: 2 ug duplex with lysate, 90 min …

GST-p53, sequence (P04637 whole entry): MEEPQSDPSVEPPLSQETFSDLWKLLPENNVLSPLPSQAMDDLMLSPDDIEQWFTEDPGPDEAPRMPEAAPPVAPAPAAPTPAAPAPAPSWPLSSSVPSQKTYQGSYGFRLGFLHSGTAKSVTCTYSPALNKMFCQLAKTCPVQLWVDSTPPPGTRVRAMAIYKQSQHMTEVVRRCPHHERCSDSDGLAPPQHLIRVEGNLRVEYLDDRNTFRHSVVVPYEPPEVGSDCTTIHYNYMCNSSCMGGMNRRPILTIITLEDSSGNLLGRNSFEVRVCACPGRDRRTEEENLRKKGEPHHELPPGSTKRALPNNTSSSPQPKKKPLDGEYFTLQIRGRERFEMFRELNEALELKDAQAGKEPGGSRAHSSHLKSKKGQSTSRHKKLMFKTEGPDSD

Question: With “CGCGCCTGCAAGTCCTGACTTGTCCGCGGC (double strand) [PUMA promoter duplex, FAM]” as the sequence, how does the Kd read?
Answer: 29.6 nM
